Source: FireProtDB (doi:10.1093/protein/10.5.575)

B1: Cytochrome b5, P00171 (parent)
chain: MAEESSKAVKYYTLEEIQKHNNSKSTWLILHYKVYDLTKFLEEHPGGEEVLREQAGGDATENFEDVGHSTDARELSKTFIIGELHPDDRSKITKPSESIITTIDSNPSWWTNWLIPAISALFVALIYHLYTSEN

Variants of: B1
Conditions: Bos taurus, pH 7, Absorbance, phosphate 0.1 M, reversible: yes, structure 1CYO, whole UniProt chain shown

Row | Variant | ddG of mutation (higher = less stable) (30 °C, Urea) [kcal/mol] | denaturant midpoint (higher = more stable) (30 °C, Urea) [M] | ddG of mutation (higher = less stable) (66.2 °C, Thermal) [kcal/mol] | unfolding enthalpy (van 't Hoff) (66.2 °C, Thermal) [kcal/mol] | Tm (Thermal) [°C] | change of melting temperature, mutant - wild type (higher = more stable) (Thermal) [°C] | unfolding enthalpy (van 't Hoff) (Thermal) [kcal/mol]
1 | F40Y | -1.03 | 8.3 | -0.79 | 86.4 | 69.6 | 3.4 | 86.4
2 | F40H | – | – | 2.82 | – | 54.9 | -11.3 | 94.7
3 | F40L | 1.87 | 4.9 | 1.87 | – | 59.1 | -7.1 | 104
